# From patent publication US20130115676
# What was measured:
# [1] = target: T1, ScaI-HF H193A/S201F (Streptomyces caespitosus) (UniProt O52691); assay: cleavage_in_vitro; details: NEB4, 10 mM Mg acetate, 37 C
# T1 sequence: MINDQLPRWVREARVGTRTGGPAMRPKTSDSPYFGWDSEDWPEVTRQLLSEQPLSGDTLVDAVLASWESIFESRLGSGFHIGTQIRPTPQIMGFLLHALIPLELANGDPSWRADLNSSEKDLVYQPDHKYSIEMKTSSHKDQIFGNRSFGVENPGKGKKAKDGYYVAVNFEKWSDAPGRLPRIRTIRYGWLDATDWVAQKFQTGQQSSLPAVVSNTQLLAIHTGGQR
# [2] = system: T2, SphI (Streptomyces phaeochromogenes); assay: cleavage_in_vitro; details: NEB1, 10 mM MgCl2, 37 C
# T2 sequence: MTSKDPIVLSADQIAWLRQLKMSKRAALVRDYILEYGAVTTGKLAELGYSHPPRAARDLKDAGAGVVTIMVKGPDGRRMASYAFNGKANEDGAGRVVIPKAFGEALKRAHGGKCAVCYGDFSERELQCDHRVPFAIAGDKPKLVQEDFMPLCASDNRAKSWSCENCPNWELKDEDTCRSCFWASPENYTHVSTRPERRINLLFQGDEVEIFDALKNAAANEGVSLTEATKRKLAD
substance,measurement,setting,value
lambda DNA,activity (fidelity index),[1],1000
same,activity (fidelity index),[2],64
